Results as given in the supplement of paper PMC7125110.
± gives the standard error. Variants at the floor of the assay were thinned out.

B1: glmS ribozyme (parent)
chain: AUAAAAGCGCCAGAACUACAGAAAUGUAGUUGACGAGGAGGAGGUUUAUCGAAUUUUCGGCGGAUGCCUCCAAA

Key:
Settings in all cases: with glucosamine-6-phosphate
glucosamine-6-phosphate [1] = variants of: B1; test: self-cleavage kobs at 40 uM GlcN6P; higher = faster cleavage; RNA array
Summary of the method: (§1)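 Barcoded ribozyme variants, transcribed in situ by E. coli RNA polymerase on sequenced MiSeq chips, were followed via a hybridised Cy3 probe at 37 °C. Glucosamine-6-phosphate ranged from 40 μM to 10 mM in HEPES/KCl/Mg(OAc)2 buffer. kobs came from decay fits to per-tile medians, and kcat and KM from weighted Michaelis–Menten fits.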

glucosamine-6-phosphate [2] = variants of: B1; test: self-cleavage kobs at 640 uM GlcN6P; higher = faster cleavage; RNA array
Summary of the method: as §1

glucosamine-6-phosphate [3] = variants of: B1; test: self-cleavage kobs at 2500 uM GlcN6P; higher = faster cleavage; RNA array
Summary of the method: as §1

glucosamine-6-phosphate [4] = variants of: B1; test: self-cleavage kobs at 10000 uM GlcN6P; higher = faster cleavage; RNA array
Summary of the method: as §1

glucosamine-6-phosphate [5] = variants of: B1; test: self-cleavage kobs at 160 uM GlcN6P; higher = faster cleavage; RNA array
Summary of the method: as §1

| Variant | self-cleavage kobs at 40 uM GlcN6P (glucosamine-6-phosphate [1]) | self-cleavage kobs at 640 uM GlcN6P (glucosamine-6-phosphate [2]) | self-cleavage kobs at 2500 uM GlcN6P (glucosamine-6-phosphate [3]) | self-cleavage kobs at 10000 uM GlcN6P (glucosamine-6-phosphate [4]) | self-cleavage kobs at 160 uM GlcN6P (glucosamine-6-phosphate [5]) |
| --- | --- | --- | --- | --- | --- |
| AUAAAAGCGCCAGAACUACAGAAAUGUACUUGACGAGGAGGCGGUUUAUCGAAUUUUCGGCGGAUGCCUCCAAA [G29C A42C] | < 1e-05 s⁻¹ | < 1e-05 s⁻¹ | < 1e-05 s⁻¹ | < 1e-05 s⁻¹ |  |
| AUAAAAGCGCCAGAACUACAGAAAUGUAGUUGAAGAGGAGGAGGUUUAUCGAAUUUUCGGCGGCUGCCUCCAAA [C34A A64C] | < 1e-05 s⁻¹ | < 1e-05 s⁻¹ | < 1e-05 s⁻¹ | < 1e-05 s⁻¹ |  |
| AUAAAAGCGCCAGAACUACAGAAAUGUAGUUGACGAGGAGGAGGUUUAUGGAAUUUUCGGCUGAUGCGUCCAAA [C50G G62U C68G] | 0.000123 ± 3.2e-05 s⁻¹ |  |  | 9.97e-05 ± 2.5e-05 s⁻¹ |  |
| AUAAAAGCGCCAGAACUACAGAAAUGUAGUUGACGAGGAGGAGGUUUCUCAAAUUUUCGGCGGAUGCCUCCAAA [A48C G51A] | < 1e-05 s⁻¹ | < 1e-05 s⁻¹ | < 1e-05 s⁻¹ | < 1e-05 s⁻¹ | < 1e-05 s⁻¹ |
| AUAAAAGAGCCAGAACUACAGAAAUGUAGUUGACGAGGAGGAGGUUUAUCGAAUUAUCGGCGGAUGCCUCCAAA [C8A U56A] | < 1e-05 s⁻¹ | < 1e-05 s⁻¹ | < 1e-05 s⁻¹ | < 1e-05 s⁻¹ | < 1e-05 s⁻¹ |
| AUAAAAGCGCCAGAUCUACAGAAAUGUAGUUGACGAGGAGGAGGUUUAUCGAAUUUUCCGCGGCUGCCUCCAAA [A15U G59C A64C] | < 1e-05 s⁻¹ |  |  |  |  |
| AUAAAAGCGCCAGAACUACAGAAAUGUAGUUGAUGAGGAGGAGGUUUAUCGAAUUUUCGGCGGAUGCCGCCAAA [C34U U69G] | 0.000246 ± 5.1e-05 s⁻¹ | 0.000467 ± 0.00011 s⁻¹ | 0.00161 ± 0.00069 s⁻¹ | 0.000285 ± 4.5e-05 s⁻¹ | 5.32e-05 ± 2.5e-05 s⁻¹ |
| AUAAAAGCGCCAGAACUACAGAAAUGUAGUUGACGAGGAGGAGGUUUAUCGAAGUUUCGGCGGAUGACUCCAAA [U54G C67A] | 0.000326 ± 7.1e-05 s⁻¹ | 0.000916 ± 0.00018 s⁻¹ | 0.00208 ± 0.00067 s⁻¹ | 0.00623 ± 0.0012 s⁻¹ | 0.000481 ± 9.8e-05 s⁻¹ |
| AUAAACGCGCCAGCACUACAGAAAUGUAGUUGACGAGGAGGAGGGUUAUCGAAUUUCCGGCGGAUGCCUCCAAA [A6C A14C U45G U57C] | < 1e-05 s⁻¹ |  |  | < 1e-05 s⁻¹ |  |
| AUAAAAGCGCCAGAGUUACAGAAAUGUAGUUGACGAGGAGGAGGUUUAUCGUAUUUACUGCGGAUGCCUCCAAA [A15G C16U A52U U57A G59U] | < 1e-05 s⁻¹ |  |  | < 1e-05 s⁻¹ | < 1e-05 s⁻¹ |
| AUAAAAGCGCCCGAACUACAGAAAUGUAAUUGACCAGGAGGAGGUUUAUCGUAAUUUCGUCGGAUGGCUCCAAA [A12C G29A G35C A52U U54A G60U C67G] | < 1e-05 s⁻¹ |  |  |  |  |
| AUAAAAGCGCCAGAACUACAGAAAUGUAGUUGACGAGGAGGAGGUUUGUCGAAUUUUCGCGGGAUGCCUCCAAA [A48G G60C C61G] | < 1e-05 s⁻¹ |  |  |  |  |
